According to patent US10233255B2, “Antibody therapeutics that bind STAT3” (Sorrento Therapeutics, Inc., priority 2016, dated 2019):
“Also recorded” adds a separate entry of the source.

Tests used:
MCF-10A cells = test: Accumulation / internalization of antibody conjugate in MCF-10A cells (fluorescence imaging); type: cell-based, human; conditions: 30 minutes pretreatment, FIG. 14
STAT3 [1] = target: T1, STAT3 (Homo sapiens, UniProt P40763); test: Biacore T200 affinity measurement, captured antibody vs recombinant human STAT3-GST; type: binding
Procedure: Biacore T200 was used to measure the affinity of anti-STAT and anti-STAT-phosphorothioate (PS) antibody (compound 901) to human STAT3. Anti-human Fc antibody (GE, BR-1008-39) was immobilized on a CM5 sensor chip to approximately 1000 RU using standard NHS/EDC coupling methodology. Antibodies (approximately 10 ug/ml) were captured for 60 seconds at a flow rate of 10 ul/min Recombinant human STAT3-GST was serially diluted 2-fold into running buffer (HBS-EP+, starting from […]). All measurements were conducted at a flow rate of 30 ul/min Surfaces were regenerated with 3M MgCl2 (from human antibody kit) for 60 seconds. A 1:1 (Langmuir) binding model was used to fit the data. The results are shown in Table 2, below for anti-STAT3 antibody, ST3G12, and the conjugated anti-STAT3 antibody, ST3G12-PS (compound 901).

GST protein = GST protein (Schistosoma japonicum, UniProt P08515); test: Biacore binding to GST protein (specificity control)
mouse STAT3 = target: T2, mouse STAT3 (Mus musculus, UniProt P42227); test: Cell binding assay on fixed, permeabilized mouse cell lines (flow cytometry); conditions: FIG. 3C
T2 construct: endogenous in cells; host or cells: CT-26, MC-38
Procedure: (§1) Next, the binding of the candidate anti-STAT3 antibodies to cellular targets was tested in cell binding assays using MDA-MB-435 breast cancer cells and U251 cells. The cells were seeded overnight in a 96 well plate, then fixed with PFA and permeabilized with methanol. Cells were incubated with serial dilutions of the anti-STAT3 antibody candidates ST1A5, ST3G12 and ST5G12 for one hour and 30 minutes. Following incubation, the cells were washed and incubated for 30 minutes with phycoerythrin (PE) conjugated anti-human IgG. Fluorescence was measured on an Intellicyte high-throughput flow cytometry analyzer. […] Bevacizumab (Avastin), a monoclonal antibody that inhibits vascular endothelial growth factor A (VEGF-A) was used as a negative control.
(§2) An isotype control was used as a negative control. The experimental procedure was the same as described above for FIGS. 3A and 3B.

[2] = test system: cellular antigens in U251 cells; test: Cell binding of naked versus PS-conjugated antibody in U251 cells (HTFC); design: species or system human; conditions: permeabilized U251 cells, FIG. 4
Procedure: Cell binding of naked anti-STAT3 ST3G12 antibodies (ST3G12) versus compound 901 (ST3G12-PS) was assessed in U251 cells. Cells were lifted, permeabilized and incubated with increasing amounts of naked anti-STAT antibodies and PS anti-STAT antibody (compound 901) in PBS+/−2% fetal bovine serum (FBS). After 45 minutes at room temperature, cells were washed twice and incubated with phycoerythrin (PE) conjugated-anti-human IgG for 20 minutes at room temperature in the dark. Cells were then washed and analyzed by high throughput flow cytometry (HTFC). The results are shown in FIG. 4 for assessment of antibody binding to U251 cells.

STAT3 phosphorylation = test: IL-6 stimulated STAT3 phosphorylation ELISA on cell lysates; type: cell-based, human; conditions: overnight antibody, IL-6 10 or 40 ng/ml for 20 minutes
Procedure: Normal breast epithelial cells (MCF-10A) and ER+ breast cancer cells (MCF-7) were treated with naked ST3G12 antibody and conjugated ST3G12-PS antibody (compound 901) (shown as “OS-STAT3” in FIGS. 8A and 8B) to determine the effect on STAT3 phosphorylation. Cells were pre-treated overnight with antibody, and then stimulated with various concentrations of IL-6 for 20 minutes (10 ng/ml or 40 ng/ml). IL-6 is a STAT3 activator. Cells were then lysed and the protein lysates were subjected to ELISA to determine the phosphorylation status. […] “OS-AIP” refers to an oligosaccharide conjugated bacterial AIP protein, used as a control.

U251 cells = test: Accumulation / internalization of antibody conjugate in U251 cells (fluorescence imaging); type: cell-based, human; conditions: 20 ug/mL, 2 hours at 37° C.
Procedure: The same experiments were repeated in the U251 glioblastoma cell line, which also has high levels of STAT3 activity, as described in FIG. 7A. U251 cells were treated with 10 ug/ml of ST3G12-PS antibody conjugate compound 901 in increasing proportions of human serum (1%, 5%, 10% and 20%), for 90 minutes at 37° C. Cells were then fixed, permeabilized and stained with anti-human IgG Alexa546. […] MCF-10A, a normal human mammary epithelial cell line with low levels of STAT3 activity (STAT3 low), was described in FIGS. 7A and 7B. This cell line was also tested according to the above protocol. […] The results of another experiment that was performed to determine accumulation of anti-STAT3 antibody conjugate (e.g. compound 901) are shown in FIG. 7C.
Experiments were carried out to confirm that the ST3G12-PS antibody conjugate (compound 901) was penetrating the cells. Briefly, previously cleaned glass coverslips were coated with collagen for 2 hours at 37° C. 100,000 U251 cells were seeded on the coverslips. Media was removed, and cells were rinsed once with fluorobrite. Next, 20 ug/mL of the specified antibody was added for 2 hours at 37° C. […] In FIG. 10E, red fluorescence indicates the plasma membrane, blue fluorescence indicates the nuclei and green florescence represents the intracellular accumulated ST3G12-PS antibody conjugate compound 901a. […]

[3] = test system: Human colon cancer HCT116 cells; test: Penetration of 3D tumor spheroids, HCT116 cells; type: cell-based; conditions: alexa fluor 488 labeled, FIG. 18C
Procedure: Next, experiments were carried out to determine the effect of the STAT3 antibody conjugate on penetration of tumor cells and on tumor cell growth in a three-dimensional (3D) model. 3D in vitro models, such as a tumor spheroid model, have been used in cancer research as an intermediate model between in vitro cancer cell line cultures and in vivo tumor. Human colon cancer HCT116 cells were grown in a 3D tumor spheroid model in a ULA (ultra low attachment) plate, and treated with alexa fluor 488 dye labeled anti-STAT3 monoclonal antibody or alexa fluor labeled anti-STAT3 antibody conjugate (compound 901) for one hour to initiate the uptake. Thereafter, spheres were imaged every 10 min for the next 80 hours with ImageExpress. FIG. 18C are images that show detection of the alexa fluor. […] Next, the effect of the anti-STAT3 antibody conjugate (compound 901) on the growth of 3D tumor spheroids was examined DU145 human prostate cancer cells were seeded in ULA plate. Spheres were allowed to form for 72 hours then treated with the indicated antibodies for additional 5 days. Growth was monitored by ImageXpress HCS confocal microscopy (FIG. 19A). CTG assay was used to determine percent viability in FIG. 19B and percent killing in FIG. 19C. Experiments were done in triplicate wells. Error bars represent one standard deviation.

[4] = mouse, in vivo, iv
Text: (§3) The pharmacokinetic properties of the anti-STAT3 antibody conjugates were examined in athymic nude mice.

[5] = Pharmacokinetics in athymic nude mice; conditions: administered intravenously
Text: as §3

STAT3 [6] = target: T1, STAT3; test: Cell binding assay on fixed, permeabilized human cells (PE anti-human IgG, flow cytometry); design: endogenous in cells; host or cells: MDA-MB-468 (also given as MDA-MB-435), U251, HeLa
Procedure: as §1, §2

T1 sequence (P40763 whole entry): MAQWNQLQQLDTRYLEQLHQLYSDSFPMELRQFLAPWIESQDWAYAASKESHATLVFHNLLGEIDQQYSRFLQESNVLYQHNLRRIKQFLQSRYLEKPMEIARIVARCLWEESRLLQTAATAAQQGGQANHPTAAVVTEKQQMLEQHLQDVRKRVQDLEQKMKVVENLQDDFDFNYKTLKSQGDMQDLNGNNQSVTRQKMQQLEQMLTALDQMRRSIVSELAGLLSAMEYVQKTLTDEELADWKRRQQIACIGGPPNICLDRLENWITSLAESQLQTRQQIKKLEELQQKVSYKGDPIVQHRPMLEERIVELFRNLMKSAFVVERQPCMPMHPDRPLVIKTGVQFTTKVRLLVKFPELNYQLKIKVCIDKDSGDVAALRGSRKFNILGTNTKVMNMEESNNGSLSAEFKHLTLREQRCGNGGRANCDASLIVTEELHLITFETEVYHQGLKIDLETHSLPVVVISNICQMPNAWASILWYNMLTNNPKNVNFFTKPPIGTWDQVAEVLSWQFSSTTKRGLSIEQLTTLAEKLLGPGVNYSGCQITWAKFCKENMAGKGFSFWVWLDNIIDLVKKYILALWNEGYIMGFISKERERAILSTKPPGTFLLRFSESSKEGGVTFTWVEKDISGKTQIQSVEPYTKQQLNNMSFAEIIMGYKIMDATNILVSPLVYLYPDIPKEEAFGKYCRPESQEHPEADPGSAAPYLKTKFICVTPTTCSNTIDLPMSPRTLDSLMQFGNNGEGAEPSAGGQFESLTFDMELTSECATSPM
T2 sequence (P42227 whole entry): as the sequence (P40763 whole entry) above, with E760D counted along it
GST protein, sequence (P08515 whole entry): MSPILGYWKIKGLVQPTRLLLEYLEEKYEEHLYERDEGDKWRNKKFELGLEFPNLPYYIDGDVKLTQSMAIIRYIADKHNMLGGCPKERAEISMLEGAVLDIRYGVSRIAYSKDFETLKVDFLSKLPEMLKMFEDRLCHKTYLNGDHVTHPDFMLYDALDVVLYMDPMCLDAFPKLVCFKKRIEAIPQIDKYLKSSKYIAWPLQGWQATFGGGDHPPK

O=C1NC(=NS(=O)(=O)c2cccc3ccccc23)S/C1=C\c1ccc(Br)cc1 [PS2, Pitstop2]
effect of clathrin inhibitor on ST3G12-PS uptake (MCF-10A cells; 30 uM and 60 uM): inhibited

CCCCC[C@@H](O)[C@H]1C(=O)O[C@H](C)[C@@H](O)/C=C/C=C/C=C/C=C/C=C(\C)[C@@H](O)C[C@H](O)C[C@H](O)C[C@H](O)C[C@H](O)C[C@H](O)C[C@@H]1O [filipin]
effect of caveolin inhibitor on ST3G12-PS uptake (MCF-10A cells; 0.5 ug/ml): little effect | effect of caveolin inhibitor on ST3G12-PS uptake (MCF-10A cells; 1.0 ug/ml): greater effect

B1: ST3G12: fully human anti-STAT3 antibody, heavy/light chain variable domains SEQ ID NO. 3/SEQ ID NO. 4 (antibody, V domains shown)
VH: QVQLVQSGAEVKKPGASVKVSCKASGYTFTSYYMHWVRQAPGQGLEWMGIINPSGGSTSYAQKFQGRVTMTRDTSTSTVYMELSSLRSEDTAVYYCARSDYVHSFDIWGQGTMVTVSS
VL: QPVLTQPPSASALLGASIKLTCTLSSEHSTYTVEWYQQRPGRSPQYIMNVKSDGSYNKGDGIPDRFMGSSSGADRYLTFSNLQSDDEAEYHCGESHRIDGQVGVVFGGGTKLTVL
Rmax (STAT3 [1]): 174 | Ka (STAT3 [1]; 1:1 (Langmuir) binding model): 59700 M⁻¹ s⁻¹ | Kd (STAT3 [1]; 1:1 (Langmuir) binding model): 0.000322 s⁻¹ | binding to GST protein (GST protein): No binding | binding to CT-26 mouse cell line (mouse STAT3; CT-26 cells): able to recognize mouse STAT3 | binding to MC-38 mouse cell line (mouse STAT3; MC-38 cells): able to recognize mouse STAT3 | antibody binding to U251 cells, naked versus conjugated [2]: considerably lower | effect on STAT3 phosphorylation in MCF-10A cells (STAT3 phosphorylation; FIG. 8A): little to no effect | effect on STAT3 phosphorylation in MCF-7 cells (STAT3 phosphorylation; FIG. 8B): little to no effect | cell penetration / internalization by microscopy (U251 cells): no internalization | penetration of tumor spheroids [3]: did not | AUC (0-336 hr) [4]: 254.6 µg·days/mL | Cmax [4]: 79.7 µg/mL | Vs s [4]: 0.0833 L/kg | CI [5]: 18.7 mL/day/kg | T ½ [5]: 76.5 h | binding to HeLa cell line (STAT3 [6]; HeLa cells, FIG. 3C): strong binding | STAT3 binding in MDA-MB-468 cells (STAT3 [6]; MDA-MB-468 cells, FIG. 3A): bound STAT3 | STAT3 binding in U251 cells (STAT3 [6]; U251 cells, FIG. 3B / 3C): bound STAT3; also recorded: strong binding
